Starred links: 1 amine or outer side, 2 acyl side, 3 side chain; linkers in the order of their positions; H or OH if unused. Positions of bridges follow the written chain, without caps; N, C: chain ends. NH(CH2)3(OCH2CH2)2O(CH2)3NH = C(CN[*:1])COCCOCCOCCCN[*:2]
Experiments:
[1] = biological target: T1, human BACE1 extracellular domain (residues 22-457), wild type, C-terminal His8 (human, UniProt P56817 22-457); test: ELISA; biotinylated BACE020 on plate-coated BACE1 ECD (WT, the reference)
T1 construct: Expressed in CHO cells with the BACE1 signal peptide; also called WT; BACE1 ECD
T1 sequence (P56817 other isoform, or with tags, fused parts or gaps): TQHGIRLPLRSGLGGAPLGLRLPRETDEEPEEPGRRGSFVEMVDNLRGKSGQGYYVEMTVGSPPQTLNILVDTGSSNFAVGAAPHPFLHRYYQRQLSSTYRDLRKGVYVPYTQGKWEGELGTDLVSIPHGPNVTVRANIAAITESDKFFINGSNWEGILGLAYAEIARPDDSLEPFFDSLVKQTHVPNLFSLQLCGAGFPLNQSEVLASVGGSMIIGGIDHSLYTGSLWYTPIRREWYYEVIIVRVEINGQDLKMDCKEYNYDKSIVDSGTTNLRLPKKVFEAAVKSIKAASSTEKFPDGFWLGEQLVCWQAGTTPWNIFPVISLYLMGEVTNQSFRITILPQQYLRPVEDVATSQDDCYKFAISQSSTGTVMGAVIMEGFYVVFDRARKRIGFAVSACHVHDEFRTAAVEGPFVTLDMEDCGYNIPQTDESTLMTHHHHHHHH
Description: (§1) Maxisorp microtiter plates (Nalge Nunc International, Rochester, N.Y.) were coated overnight at 4° C. with 2 μg/ml BACE1 mutant in 50 mM carbonate, pH 9.6. The coated wells were washed with buffer (PBS, 0.05% Polysorbate 20) and blocked with assay buffer (PBS, pH 7.4, 0.5% BSA, 0.05% Tween 20, 15 ppm Proclin) for 1 h at room temperature with gentle shaking. […] After washing, the amount of peptide bound to the plate was detected by the addition of Streptavidin-Horseradish Peroxidase Conjugate (GE Healthcare, Piscataway, N.J.) followed by the addition of TMB/H₂O₂ substrate (KPL, Gaithersburg, Md.). The reaction was quenched with 1 M phosphoric acid and the A₄₅₀ measured on a Molecular Devices SpectraMax Plus384 microplate reader. Concentrations to give half maximal effective concentration (EC₅₀) were determined using a 4-parameter non-linear regression curve-fitting program with Kaleidagraph (Synergy Software, Reading, Pa.). […] Concentrations to give half maximal inhibition concentration (IC₅₀) were determined using a 4-parameter non-linear regression curve-fitting program with Kaleidagraph.
(§2) The fold decrease in binding affinity was determined as the relative EC₅₀ values of EC₅₀ (mut)/EC₅₀ (WT), which are listed in Table 3.

[2] = biological target: T2, human BACE1 ECD (22-457) T133A, His8 (human, UniProt P56817 22-457); test: ELISA; biotinylated BACE020 on plate-coated BACE1 ECD mutant; ratio to WT
T2 construct: also called T133A (72)
T2 sequence (P56817 other isoform, or with tags, fused parts or gaps T133A T133A): as the sequence (P56817 other isoform, or with tags, fused parts or gaps) above, with T112A counted along it
Description: as §1, §2

[3] = biological target: T3, human BACE1 ECD (22-457) G74A, His8 (human, UniProt P56817 22-457); test: as above
T3 construct: also called G74A (13)
T3 sequence (P56817 other isoform, or with tags, fused parts or gaps G74A G74A): as the sequence (P56817 other isoform, or with tags, fused parts or gaps) above, with G53A counted along it
Description: as §1, §2

[4] = biological target: T4, human BACE1 ECD (22-457) Q73A, His8 (human, UniProt P56817 22-457); test: as above
T4 construct: also called Q73A (12)
T4 sequence (P56817 other isoform, or with tags, fused parts or gaps Q73A Q73A): as the sequence (P56817 other isoform, or with tags, fused parts or gaps) above, with Q52A counted along it
Description: as §1, §2

[5] = biological target: T5, human BACE1 ECD (22-457) T292A, His8 (human, UniProt P56817 22-457); test: as above
T5 construct: also called T292A (231)
T5 sequence (P56817 other isoform, or with tags, fused parts or gaps T292A T292A): as the sequence (P56817 other isoform, or with tags, fused parts or gaps) above, with T271A counted along it
Description: as §1, §2

[6] = biological target: T6, human BACE1 ECD (22-457) I171A, His8 (human, UniProt P56817 22-457); test: as above
T6 construct: also called I171A (110)
T6 sequence (P56817 other isoform, or with tags, fused parts or gaps I171A I171A): as the sequence (P56817 other isoform, or with tags, fused parts or gaps) above, with I150A counted along it
Description: as §1, §2

[7] = biological target: T7, human BACE1 ECD (22-457) W176A, His8 (human, UniProt P56817 22-457); test: as above
T7 construct: also called W176A (115)
T7 sequence (P56817 other isoform, or with tags, fused parts or gaps W176A W176A): as the sequence (P56817 other isoform, or with tags, fused parts or gaps) above, with W155A counted along it
Description: as §1, §2

B1: biotinylated BACE020 (Ac-NEESMYCRLLGIGCG-(PEG)3-biotin) (peptide)
peptide: Ac-NEESMYCRLLGIGCG-{NH(CH2)3(OCH2CH2)2O(CH2)3NH-biotin}
modifications: disulfide 7-14
notes: also called C-terminal biotin tagged BACE020 peptide
B1 was tested, and the “Fold Decrease in Binding EC50 (Mut)/EC50 (WT)” value (“Fold Decrease in Binding EC50” for short) [1] was 1 fold, the “Fold Decrease in Binding EC50” value [2] was 1.1 fold and the “Fold Decrease in Binding EC50” value [3] was 488 fold. The “Fold Decrease in Binding EC50” value [4] was 1.7 fold, the “Fold Decrease in Binding EC50” value [5] was 73.6 fold and the “Fold Decrease in Binding EC50” value [6] was 1020 fold. For the same binder, the “Fold Decrease in Binding EC50” value [7] was 690 fold.

Reference: US20140228277A1 (Genentech, published 2014)
